Values belong to the binder of their own block, whether it stands above or below them.
Columns and labels:
Experiment in all cases: ITC
[1] = biological target: HSL3 ectodomain pre-incubated with CTNIP4^C58A(46–63) (Arabidopsis, C58A (stands in the printed letters))
[2] = biological target: HSL3–CTNIP4 complex (HSL3 ectodomain pre-incubated with CTNIP4(46–70)_(Cys–Cys)) (Arabidopsis, disulfide bond linking Cys58 and Cys68)
[3] = biological target: HSL3 ectodomain pre-incubated with CTNIP4^C58A.C68A(46–70)_(linear) (Arabidopsis, C58A (stands in the printed letters) | C68A (stands in the printed letters))
[4] = biological target: HSL3 ectodomain pre-incubated with CTNIP4^N60F(46–70)_(Cys–Cys) (Arabidopsis, N60F (stands in the printed letters), disulfide bond linking Cys58 and Cys68)
[5] = biological target: HSL3 ectodomain pre-incubated with CTNIP4^N60A(46–70)_(Cys–Cys) (Arabidopsis, N60A (stands in the printed letters), disulfide bond linking Cys58 and Cys68)

Kd [1]: 8200 nM
Kd [2]: 458 nM
Kd [3]: 2540 nM
B1: SERK1 ectodomain (residues 24–213) (domain or fragment)
chain: ASANLEGDALHTLRVTLVDPNNVLQSWDPTLVNPCTWFHVTCNNENSVIRVDLGNAELSGHLVPELGVLKNLQYLELYSNNITGPIPSNLGNLTNLVSLDLYLNSFSGPIPESLGKLSKLRFLRLNNNSLTGSIPMSLTNITTLQVLDLSNNRLSGSVPDNGSFSLFTPISFANNLDLCGPVTSHPCPGS

Kd [4]: 15100 nM
Kd [5]: 2050 nM
Kd [2]: 269 nM
B2: SERK3 (protein)
chain: NAEGDALSALKNSLADPNKVLQSWDATLVTPCTWFHVTCNSDNSVTRVDLGNANLSGQLVMQLGQLPNLQYLELYSNNITGTIPEQLGNLTELVSLDLYLNNLSGPIPSTLGRLKKLRFLRLNNNSLSGEIPRSLTAVLTLQVLDLSNNPLTGDIPVNGSFSLFTPISFANTKLTPLPASPPPPISPTPPSPAGS

Reference: paper PMC13585564 (2026)
